Results published in paper PMC7920261 (Science (New York, N.y.), 2020).

Key:
[1] = target: T1, SARS-CoV-2 spike receptor-binding domain (RBD) (SARS-CoV-2, UniProt P0DTC2); test: BLI; details: both partners purified
[2] = target: T1, SARS-CoV-2 spike receptor-binding …; test: ELISA; details: both partners purified

B1: CTC-445.2t (designed binder)
chain: SAEIDLGKGDFREIRASEDAREAAEALAEAARAMKEALEIIREIAEKLRDSSRASEAAKRIAKAIRKAADAIAEAAKIAARAAKDGDAARNAENAARKAKEFAEEQAKLADMYAELAKNGDKSSVLEQLKTFADKAFHEMEDRFYQAALAVFEAAEAAAGGGGSGGSGSGGSGGGSSAEIDLGKGDFREIRASEDAREAAEALAEAARAMKEALEIIREIAEKLRDSSRASEAAKRIAKAIRKAADAIAEAAKIAARAAKDGDAARNAENAARKAKEFAEEQAKLADMYAELAKNGDKSSVLEQLKTFADKAFHEMEDRFYQAALAVFEAAEAAAGGGGSGGSGSGGSGGGSSAEIDLGKGDFREIRASEDAREAAEALAEAARAMKEALEIIREIAEKLRDSSRASEAAKRIAKAIRKAADAIAEAAKIAARAAKDGDAARNAENAARKAKEFAEEQAKLADMYAELAKNGDKSSVLEQLKTFADKAFHEMEDRFYQAALAVFEAAEAAAG
[1]
  Kd: ~0.27 nM
[2]
  IC50: ~0.01 nM
